# Assay results: the Immune Epitope Database (IEDB)
# Assays:
# Settings in all cases: source organism: Vibrio parahaemolyticus AQ3810
# HLA-B*46:01 = experiment: IEDB peptide-MHC binding, purified MHC/direct/fluorescence; filed as Kd, often an IC50 or EC50 that approximates it; ≥ and ≤ were set here for values at or beyond the usual limits of such assays
# HLA-A*29:02 = experiment: as above
# HLA-A*26:01 = experiment: as above
# HLA-B*27:03 = experiment: as above
# HLA-A*03:01 = experiment: as above
# HLA-A*69:01 = experiment: as above
# HLA-B*15:01 = experiment: as above
# HLA-B*51:01 = experiment: as above
# HLA-A*23:01 = experiment: as above
# HLA-B*57:01 = experiment: as above
# HLA-A*02:19 = experiment: as above
# HLA-B*15:17 = experiment: as above
# HLA-B*18:01 = experiment: as above
# HLA-A*02:01 = experiment: as above
# HLA-A*24:03 = experiment: as above
# HLA-A*02:06 = experiment: as above
# HLA-A*30:02 = experiment: IEDB peptide-MHC binding, purified MHC/competitive/fluorescence; filed as Kd, often an IC50 or EC50 that approximates it; ≥ and ≤ were set here for values at or beyond the usual limits of such assays
# HLA-B*27:05 = experiment: as above
# HLA-B*53:01 = experiment: as above
# HLA-B*08:01 = experiment: as above
# HLA-B*44:02 = experiment: as above
# HLA-A*01:01 = experiment: as above
# HLA-A*66:01 = experiment: as above
# HLA-B*58:01 = experiment: as above
# HLA-B*07:02 = experiment: as above
# HLA-B*14:02 = experiment: as above
# HLA-A*11:01 = experiment: as above
# HLA-B*40:01 = experiment: as above
# HLA-A*30:01 = experiment: as above
sequence,measurement,setting,value
HQFTSNPEV,Kd,HLA-B*46:01,≥ 20 µM
same,Kd,HLA-A*29:02,≥ 20 µM
same,Kd,HLA-A*26:01,≥ 20 µM
same,Kd,HLA-B*27:03,≥ 20 µM
same,Kd,HLA-A*03:01,≥ 20 µM
same,Kd,HLA-A*69:01,≥ 20 µM
same,Kd,HLA-B*15:01,≥ 20 µM
same,Kd,HLA-B*51:01,≥ 20 µM
same,Kd,HLA-A*23:01,≥ 20 µM
same,Kd,HLA-B*57:01,≥ 20 µM
same,Kd,HLA-A*02:19,≥ 20 µM
same,Kd,HLA-B*15:17,≥ 20 µM
same,Kd,HLA-B*18:01,≥ 20 µM
same,Kd,HLA-A*02:01,0.004 µM
same,Kd,HLA-A*24:03,≥ 20 µM
same,Kd,HLA-A*02:06,0.008 µM
same,Kd,HLA-A*30:02,≥ 5 µM
same,Kd,HLA-B*27:05,≥ 5 µM
same,Kd,HLA-B*53:01,≥ 5 µM
same,Kd,HLA-B*08:01,≥ 5 µM
same,Kd,HLA-B*44:02,≥ 5 µM
same,Kd,HLA-A*01:01,≥ 5 µM
same,Kd,HLA-A*66:01,≥ 5 µM
same,Kd,HLA-B*58:01,≥ 5 µM
same,Kd,HLA-B*07:02,≥ 5 µM
same,Kd,HLA-B*14:02,≥ 5 µM
same,Kd,HLA-A*11:01,≥ 5 µM
same,Kd,HLA-B*40:01,0.416 µM
same,Kd,HLA-A*30:01,≥ 5 µM
